According to patent US20210347908A1 (ELPISCIENCE SUZHOU BIOPHARMA, published 2021):

B1: chimeric antibody 035c (antibody, V domains shown)
VH: QIQLVQSGPELRKPGETVKISCKASGYSFTNYAMNWVKQAPGKVLKWMGFINTYTGEPTYADDFKGRFAFSLETSASTAYLQINNLKNEDTATYFCTRTRGYYDFDGGAFDYWGQGTSLTVSS
VL: DIVMTQSQKFMSTSIGDRVSVTCKASQNVGTHLAWYQQKPGQSPKALIFSASYRYIGVPDRFTGSGSGTDFTLTITNVQSEDLAEYFCQQYNTYPLTFGAGTKLELK
B2: chimeric antibody 032c (antibody, V domains shown)
VH: EVRLEESGGGLVQPGGSMKLSCVVSGFTFRNYWMNWVRQSPERGLEWIAEITLKSNTYATHYAESVKGRFAISRDDSKSSFYLQMNDLRPEDTGIYYCTTFTKVVADWHLDVWGAGTTVTVSS
VL: DVLMTQTPLSLPVNLGDQASISCRSSQNIVHSNGNTYLEWYLQKPGQSPKLLIYKVSNRFSGVPDRFSGSGSGTDFTLRISRVEAEDLGVYYCFQGSHVPFTFGSGTKLEIK

Legend:
[1] = target: T1, 6×His tagged human SIRPα v2 ECD recombinant protein (human); assay: SPR (Biacore)
T1 sequence (chain, as listed by the source): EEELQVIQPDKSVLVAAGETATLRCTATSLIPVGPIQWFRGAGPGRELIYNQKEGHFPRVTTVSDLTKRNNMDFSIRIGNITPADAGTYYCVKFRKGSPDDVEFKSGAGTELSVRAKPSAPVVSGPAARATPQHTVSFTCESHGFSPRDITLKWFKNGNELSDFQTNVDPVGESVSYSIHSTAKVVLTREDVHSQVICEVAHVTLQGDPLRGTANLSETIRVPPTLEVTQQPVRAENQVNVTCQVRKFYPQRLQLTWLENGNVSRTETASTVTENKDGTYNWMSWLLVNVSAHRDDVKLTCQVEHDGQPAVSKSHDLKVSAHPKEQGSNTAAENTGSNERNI
Description: (§1) Anti-SIRPα chimeric antibodies were characterized for binding affinity against human SIRPα v1, human SIRPα v2 and C57BL/6 mouse SIRPα using Biacore (GE). Briefly the antibodies to be tested were captured to CM5 chip (GE) using Human Antibody Capture Kit (GE). The antigens of 6×His tagged human SIRPα v1, human SIRPα v2 and C57BL/6 mouse SIRPα ECD recombinant proteins were serially diluted for multiple doses and injected at 30 μl/min for 180 s. Buffer flow was maintained for dissociation of 400 s. 3 M MgCl₂ was used for chip regeneration. The association and dissociation curves were fit with 1:1 binding model, and the Ka/Kd/KD values for each antibody were calculated.
(§2) hu035.01, the first version of humanized 035, was characterized by FACS assay using CHOK1-human SIRPα v1-1B4 cells, ELISA assay using Fc tagged human SIRPα v2 ECD recombinant protein and SPR analysis using the antigen of 6×His tagged human SIRPα v2 ECD recombinant protein (refer to methods described in Example 3.4, Example 3.3 and Example 4.3). […] In particular, hu035.01 cannot be detected to bind with C57BL/6 mouse SIRPα ECD in ELISA assay possibly due to reduced binding activity (FIG. 5B).

[2] = target: T2, 6×His tagged C57BL/6 mouse SIRPα ECD recombinant protein (mouse (C57BL/6), UniProt P97797 32-373); assay: SPR (Biacore), antibody captured
T2 construct: extracellular domain; bought; also called mSIRPα (C57BL/6); mouse SIRPα (C57BL/6) ECD
T2 sequence: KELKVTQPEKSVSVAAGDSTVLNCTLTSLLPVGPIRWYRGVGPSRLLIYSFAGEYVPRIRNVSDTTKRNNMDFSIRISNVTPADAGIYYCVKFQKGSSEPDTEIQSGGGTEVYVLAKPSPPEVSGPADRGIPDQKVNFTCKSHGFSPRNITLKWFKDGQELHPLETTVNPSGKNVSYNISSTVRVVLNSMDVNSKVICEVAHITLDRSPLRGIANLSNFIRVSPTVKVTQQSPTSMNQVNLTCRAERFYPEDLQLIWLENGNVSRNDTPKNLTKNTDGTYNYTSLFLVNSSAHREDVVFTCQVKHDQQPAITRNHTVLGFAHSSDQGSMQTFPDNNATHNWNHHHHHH
Description: as §1

[3] = target: T3, biotin labeled soluble human SIRPα v1 ECD recombinant protein (human, UniProt P78324 31-373, biotin labeled); assay: competitive ELISA, hSIRPα/CD47 blocking
T3 construct: extracellular domain
T3 sequence (P78324 31-373): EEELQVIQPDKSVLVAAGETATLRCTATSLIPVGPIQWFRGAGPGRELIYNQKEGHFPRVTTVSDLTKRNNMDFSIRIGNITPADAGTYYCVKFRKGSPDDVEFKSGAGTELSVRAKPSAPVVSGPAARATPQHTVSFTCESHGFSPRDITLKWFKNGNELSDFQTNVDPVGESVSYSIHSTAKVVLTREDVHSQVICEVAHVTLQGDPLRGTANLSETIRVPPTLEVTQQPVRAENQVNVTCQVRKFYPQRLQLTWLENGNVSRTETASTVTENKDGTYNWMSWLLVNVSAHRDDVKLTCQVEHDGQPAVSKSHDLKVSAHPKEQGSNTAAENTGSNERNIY

[4] = target: T4, full length C57BL/6 mouse SIRPα stably expressed on CHOK1 cells (mouse (C57BL/6), UniProt P97797 32-513); assay: FACS on CHOK1-C57BL/6 mouse SIRPα-2.22 cells
T4 construct: whole, on cells; also called CHOK1-C57BL/6 mouse SIRPα-2.22 cells
T4 sequence (looked up): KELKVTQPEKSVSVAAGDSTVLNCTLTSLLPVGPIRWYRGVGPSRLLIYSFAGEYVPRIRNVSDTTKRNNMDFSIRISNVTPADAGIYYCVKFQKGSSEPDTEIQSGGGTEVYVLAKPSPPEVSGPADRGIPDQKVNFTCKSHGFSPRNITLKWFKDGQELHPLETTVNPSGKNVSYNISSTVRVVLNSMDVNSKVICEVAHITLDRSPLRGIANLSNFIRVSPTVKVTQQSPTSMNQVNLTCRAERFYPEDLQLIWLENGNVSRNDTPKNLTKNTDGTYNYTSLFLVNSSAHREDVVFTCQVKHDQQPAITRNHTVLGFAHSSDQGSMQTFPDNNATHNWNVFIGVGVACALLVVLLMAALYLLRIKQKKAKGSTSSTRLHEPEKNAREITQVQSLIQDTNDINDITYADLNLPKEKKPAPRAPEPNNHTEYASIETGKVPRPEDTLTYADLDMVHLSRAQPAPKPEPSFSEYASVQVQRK
Description: Species cross reactivity of the purified hybridoma antibodies against human, cyno and mouse SIRPα was determined by FACS assay using CHOK1-human SIRPα v1-1B4 cells, CHOK1-cyno SIRPα-2A2 cells, and CHOK1-C57BL/6 mouse SIRPα-2.22 cells, which stably expressing SIRPα protein. Briefly the antibodies were incubated with 2×10⁵ target cells at 4° C. for 1 hour. After washing, fluorescence labeled anti-mouse or anti-human IgG 2nd antibody (Life Technologies) was added and incubated at 4° C. for 1 hour. Geometric median fluorescence intensity was detected and EC₅₀ was calculated. In particular, it is noted, in contrast to the other antibodies tested in the same experiment, 060 cannot bind with cyno SIRPα and 035 has cross reactivity against C57BL/6 mouse SIRPα.

[5] = target: T5, Fc tagged human SIRPα v1 ECD recombinant protein (human, UniProt P78324 31-370); assay: ELISA
T5 construct: range 1-370; cloned range M1-R370 includes the signal peptide; also called hSIRPα V1; not shown: human IgG Fc region (hFc) of the pCPC vector
T5 sequence (P78324 31-370 limits assumed): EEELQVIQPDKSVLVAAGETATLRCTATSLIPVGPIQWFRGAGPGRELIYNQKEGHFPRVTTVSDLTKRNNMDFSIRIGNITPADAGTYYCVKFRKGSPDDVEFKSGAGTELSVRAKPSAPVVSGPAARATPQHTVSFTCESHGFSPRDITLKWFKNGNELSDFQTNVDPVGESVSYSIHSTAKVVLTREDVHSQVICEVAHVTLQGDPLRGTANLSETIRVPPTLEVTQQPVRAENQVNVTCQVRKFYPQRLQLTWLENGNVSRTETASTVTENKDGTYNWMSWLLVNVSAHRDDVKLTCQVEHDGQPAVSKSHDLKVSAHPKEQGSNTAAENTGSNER

[6] = target: T6, Fc tagged human SIRPγ ECD recombinant protein (human, UniProt Q9P1W8 29-360); assay: ELISA
T6 construct: range 1-360; cloned range includes the signal peptide; also called hSIRPγ; not shown: human IgG Fc region (hFc) of the pCPC vector
T6 sequence (Q9P1W8 29-360 limits assumed, form in doubt): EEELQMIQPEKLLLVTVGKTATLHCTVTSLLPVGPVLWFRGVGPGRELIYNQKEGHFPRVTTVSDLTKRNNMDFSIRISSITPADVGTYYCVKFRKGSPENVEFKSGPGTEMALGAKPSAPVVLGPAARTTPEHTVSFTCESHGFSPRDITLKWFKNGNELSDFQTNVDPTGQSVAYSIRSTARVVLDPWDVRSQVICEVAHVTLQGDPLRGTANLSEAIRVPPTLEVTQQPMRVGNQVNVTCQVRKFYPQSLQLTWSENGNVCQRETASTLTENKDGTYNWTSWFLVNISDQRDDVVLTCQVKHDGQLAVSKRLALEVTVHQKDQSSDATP

[7] = target: T7, 6×His tagged human SIRPα v8 ECD recombinant protein (human); assay: ELISA
T7 construct: extracellular domain; bought; also called hSIRPα V8

[8] = target: T8, Fc tagged human SIRPβ ECD recombinant protein (human, UniProt O00241 30-371); assay: ELISA
T8 construct: range 1-371; cloned range includes the signal peptide; also called hSIRPβ; not shown: human IgG Fc region (hFc) of the pCPC vector
T8 sequence (O00241 30-371 limits assumed, form in doubt): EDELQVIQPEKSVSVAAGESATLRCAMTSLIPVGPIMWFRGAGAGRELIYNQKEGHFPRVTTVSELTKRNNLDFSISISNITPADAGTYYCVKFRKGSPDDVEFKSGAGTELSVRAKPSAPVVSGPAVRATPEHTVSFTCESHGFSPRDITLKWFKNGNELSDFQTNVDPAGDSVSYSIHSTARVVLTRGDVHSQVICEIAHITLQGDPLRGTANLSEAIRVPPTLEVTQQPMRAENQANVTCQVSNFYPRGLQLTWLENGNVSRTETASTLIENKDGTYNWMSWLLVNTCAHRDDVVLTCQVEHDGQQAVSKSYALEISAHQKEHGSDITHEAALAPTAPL

[9] = target: T9, Fc tagged human SIRPα v2 ECD recombinant protein (human); assay: ELISA
T9 construct: range 1-369; cloned range M1-R369 includes the signal peptide; also called hSIRPα V2

[10] = target: T1, 6×His tagged human SIRPα v2 ECD …; assay: SPR (Biacore), antibody captured, 6×His tagged human SIRPα v2 ECD as analyte
Description: as §1, §2

[11] = target: T2, 6×His tagged C57BL/6 mouse SIRPα ECD …; assay: ELISA on coated mouse SIRPα (C57BL/6) ECD, antibody at 10, 1 and 0.1 ug/ml [right panel mSIRPα ECD (C57BL/6]

Row | Binder | Kd [1] [nM] | Kd [2] [nM] | koff [2] [s⁻¹] | kon [2] [M⁻¹ s⁻¹] | IC50 [3] [nM] | EC50 (read off the curve) [4] [µg/mL] | EC50 [5] [nM] | EC50 [6] [nM] | EC50 [7] [nM] | EC50 [8] [nM] | EC50 [9] [nM] | koff [10] [s⁻¹] | kon [10] [M⁻¹ s⁻¹] | binding result [11]
1 | B1 | 0.61 | 5270 | 0.0247 | 4690 | 1.03 | ~0.3 | 0.16 | 16.4 | 0.2 | 0.13 | 0.13 | 5.73e-05 | 93500 | –
2 | B2 | – | – | – | – | – | – | – | – | – | – | – | – | – | no binding (tested: 10 ug/ml)
